In the supplement of paper PMC10065799, “High-throughput profiling of sequence recognition by tyrosine kinases and SH2 domains using bacterial peptide display” (eLife, 2023):

Key:
[1] = target: SHP2-C SH2; test: SH2 binding enrichment of the phosphorylated peptide, bacterial display (enrichment ratio); higher = better substrate or ligand; peptides without Tyr show the background
[2] = target: Grb2 SH2 (UniProt P62993); test: as above
[3] = target: c-Src SH2; test: as above
[4] = target: FGFR3 (UniProt P22607); test: phosphorylation enrichment, bacterial display (enrichment ratio); higher = better substrate or ligand; peptides without Tyr show the background
Sequence of FGFR3 (P22607 whole entry, looked up): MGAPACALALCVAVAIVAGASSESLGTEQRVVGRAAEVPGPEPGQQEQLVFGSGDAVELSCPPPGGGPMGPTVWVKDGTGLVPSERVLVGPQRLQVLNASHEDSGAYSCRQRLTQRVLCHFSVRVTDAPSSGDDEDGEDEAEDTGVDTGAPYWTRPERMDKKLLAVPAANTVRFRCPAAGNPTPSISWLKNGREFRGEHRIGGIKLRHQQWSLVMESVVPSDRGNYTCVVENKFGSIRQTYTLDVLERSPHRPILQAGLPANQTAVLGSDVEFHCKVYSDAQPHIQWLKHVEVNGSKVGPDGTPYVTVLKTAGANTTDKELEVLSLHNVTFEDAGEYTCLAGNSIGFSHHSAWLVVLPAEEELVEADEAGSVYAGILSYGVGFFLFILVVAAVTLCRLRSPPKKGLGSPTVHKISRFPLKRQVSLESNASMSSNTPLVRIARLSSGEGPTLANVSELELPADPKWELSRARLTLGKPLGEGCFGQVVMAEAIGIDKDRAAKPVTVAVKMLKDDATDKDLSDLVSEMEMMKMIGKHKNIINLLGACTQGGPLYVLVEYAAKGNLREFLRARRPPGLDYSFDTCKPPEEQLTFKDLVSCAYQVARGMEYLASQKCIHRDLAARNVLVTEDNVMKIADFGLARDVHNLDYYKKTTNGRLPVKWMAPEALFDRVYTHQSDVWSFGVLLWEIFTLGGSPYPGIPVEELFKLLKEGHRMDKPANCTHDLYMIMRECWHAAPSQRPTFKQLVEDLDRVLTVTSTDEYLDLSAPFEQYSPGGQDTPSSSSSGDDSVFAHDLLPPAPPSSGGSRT

[5] = system: c-Src; test: as above
[6] = target: EPHB2 (UniProt P29323); test: as above
[7] = system: c-Abl (mouse); test: as above
[8] = target: EPHB1 (UniProt P54762); test: as above
[9] = system: AncSZ; test: as above
[10] = target: Hck (UniProt P08631); test: as above
Sequence of Hck (P08631 whole entry, looked up): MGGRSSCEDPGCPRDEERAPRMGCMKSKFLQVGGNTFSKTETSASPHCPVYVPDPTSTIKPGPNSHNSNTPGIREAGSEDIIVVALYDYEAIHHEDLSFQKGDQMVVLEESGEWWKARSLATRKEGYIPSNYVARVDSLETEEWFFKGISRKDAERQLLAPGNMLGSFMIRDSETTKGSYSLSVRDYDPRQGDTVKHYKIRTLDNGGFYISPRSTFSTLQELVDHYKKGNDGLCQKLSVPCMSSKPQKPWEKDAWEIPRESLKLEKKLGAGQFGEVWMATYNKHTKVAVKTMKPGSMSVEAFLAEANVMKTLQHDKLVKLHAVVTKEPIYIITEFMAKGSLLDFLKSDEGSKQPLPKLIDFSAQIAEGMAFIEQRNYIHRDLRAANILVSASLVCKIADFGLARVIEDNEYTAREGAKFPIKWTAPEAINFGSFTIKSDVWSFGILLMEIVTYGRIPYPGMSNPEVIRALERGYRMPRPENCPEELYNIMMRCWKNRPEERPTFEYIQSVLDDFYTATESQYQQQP

[11] = target: MERTK (UniProt Q12866); test: as above
Sequence of MERTK (Q12866 whole entry, looked up): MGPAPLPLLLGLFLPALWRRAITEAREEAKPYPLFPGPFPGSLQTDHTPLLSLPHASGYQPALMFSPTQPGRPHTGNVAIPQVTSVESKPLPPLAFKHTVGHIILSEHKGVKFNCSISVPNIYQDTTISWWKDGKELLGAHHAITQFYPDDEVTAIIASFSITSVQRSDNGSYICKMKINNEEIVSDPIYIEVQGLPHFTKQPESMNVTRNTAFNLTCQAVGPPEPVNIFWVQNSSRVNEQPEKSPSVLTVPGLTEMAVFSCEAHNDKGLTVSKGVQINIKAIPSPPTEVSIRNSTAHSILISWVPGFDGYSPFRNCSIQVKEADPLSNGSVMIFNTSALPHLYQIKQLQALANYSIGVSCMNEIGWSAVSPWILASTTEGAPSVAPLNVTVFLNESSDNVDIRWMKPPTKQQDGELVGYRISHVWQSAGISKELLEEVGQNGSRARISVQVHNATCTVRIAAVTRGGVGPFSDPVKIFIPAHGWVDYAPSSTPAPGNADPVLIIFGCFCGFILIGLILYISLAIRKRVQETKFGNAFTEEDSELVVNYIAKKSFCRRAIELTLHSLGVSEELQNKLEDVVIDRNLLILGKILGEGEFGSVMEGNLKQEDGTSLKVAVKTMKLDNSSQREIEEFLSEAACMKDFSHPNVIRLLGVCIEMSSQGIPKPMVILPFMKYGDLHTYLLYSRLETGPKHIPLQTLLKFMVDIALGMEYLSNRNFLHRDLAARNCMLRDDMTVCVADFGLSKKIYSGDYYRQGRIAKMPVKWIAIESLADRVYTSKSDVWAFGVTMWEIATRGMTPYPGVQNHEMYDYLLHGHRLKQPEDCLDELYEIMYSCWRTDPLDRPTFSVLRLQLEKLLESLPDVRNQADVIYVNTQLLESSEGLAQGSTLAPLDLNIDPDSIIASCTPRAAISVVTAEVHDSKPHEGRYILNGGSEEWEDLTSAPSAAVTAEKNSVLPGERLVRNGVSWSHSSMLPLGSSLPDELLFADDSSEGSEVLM

[12] = target: FGFR1 (UniProt P11362); test: as above
Sequence of FGFR1 (P11362 whole entry, looked up): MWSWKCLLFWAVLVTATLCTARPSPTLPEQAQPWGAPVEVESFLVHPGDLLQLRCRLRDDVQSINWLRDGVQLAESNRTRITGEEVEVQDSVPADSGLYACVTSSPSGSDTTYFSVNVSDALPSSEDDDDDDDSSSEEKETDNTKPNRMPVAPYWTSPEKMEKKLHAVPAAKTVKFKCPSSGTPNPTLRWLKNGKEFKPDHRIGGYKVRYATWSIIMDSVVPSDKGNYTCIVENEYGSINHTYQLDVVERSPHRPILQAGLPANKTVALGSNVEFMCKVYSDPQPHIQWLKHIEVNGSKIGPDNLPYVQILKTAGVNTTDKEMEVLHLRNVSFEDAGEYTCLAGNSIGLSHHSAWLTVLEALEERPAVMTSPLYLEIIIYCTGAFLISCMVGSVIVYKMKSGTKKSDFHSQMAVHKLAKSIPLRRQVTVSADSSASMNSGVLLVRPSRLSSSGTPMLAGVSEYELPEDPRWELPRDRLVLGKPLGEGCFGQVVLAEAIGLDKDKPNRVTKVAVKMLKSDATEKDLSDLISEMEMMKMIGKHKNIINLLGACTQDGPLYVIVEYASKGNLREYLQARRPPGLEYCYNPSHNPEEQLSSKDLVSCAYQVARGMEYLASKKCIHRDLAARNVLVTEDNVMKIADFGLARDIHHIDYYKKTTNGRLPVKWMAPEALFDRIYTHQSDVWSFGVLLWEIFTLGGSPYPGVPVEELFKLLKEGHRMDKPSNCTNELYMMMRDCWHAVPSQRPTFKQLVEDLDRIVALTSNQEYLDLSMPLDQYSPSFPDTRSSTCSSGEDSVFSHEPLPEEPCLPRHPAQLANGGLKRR

[13] = target: Fyn (UniProt P06241); test: as above
Sequence of Fyn (P06241 whole entry, looked up): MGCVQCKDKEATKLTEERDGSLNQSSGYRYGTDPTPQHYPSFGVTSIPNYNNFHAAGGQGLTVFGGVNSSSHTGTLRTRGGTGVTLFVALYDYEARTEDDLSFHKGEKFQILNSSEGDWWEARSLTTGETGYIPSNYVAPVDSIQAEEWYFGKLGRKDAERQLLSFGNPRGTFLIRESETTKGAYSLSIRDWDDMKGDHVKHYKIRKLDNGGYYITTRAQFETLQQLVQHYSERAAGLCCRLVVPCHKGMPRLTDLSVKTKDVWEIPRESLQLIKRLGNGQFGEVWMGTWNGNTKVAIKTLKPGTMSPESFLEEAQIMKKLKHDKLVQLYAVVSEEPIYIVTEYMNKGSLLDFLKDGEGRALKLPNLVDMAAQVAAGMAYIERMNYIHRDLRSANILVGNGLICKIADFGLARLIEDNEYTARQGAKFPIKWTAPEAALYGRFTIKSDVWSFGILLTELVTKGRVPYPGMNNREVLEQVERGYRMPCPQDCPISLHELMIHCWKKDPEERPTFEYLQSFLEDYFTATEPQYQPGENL

[14] = target: Jak2 (UniProt O60674); test: as above
Sequence of Jak2 (O60674 whole entry, looked up): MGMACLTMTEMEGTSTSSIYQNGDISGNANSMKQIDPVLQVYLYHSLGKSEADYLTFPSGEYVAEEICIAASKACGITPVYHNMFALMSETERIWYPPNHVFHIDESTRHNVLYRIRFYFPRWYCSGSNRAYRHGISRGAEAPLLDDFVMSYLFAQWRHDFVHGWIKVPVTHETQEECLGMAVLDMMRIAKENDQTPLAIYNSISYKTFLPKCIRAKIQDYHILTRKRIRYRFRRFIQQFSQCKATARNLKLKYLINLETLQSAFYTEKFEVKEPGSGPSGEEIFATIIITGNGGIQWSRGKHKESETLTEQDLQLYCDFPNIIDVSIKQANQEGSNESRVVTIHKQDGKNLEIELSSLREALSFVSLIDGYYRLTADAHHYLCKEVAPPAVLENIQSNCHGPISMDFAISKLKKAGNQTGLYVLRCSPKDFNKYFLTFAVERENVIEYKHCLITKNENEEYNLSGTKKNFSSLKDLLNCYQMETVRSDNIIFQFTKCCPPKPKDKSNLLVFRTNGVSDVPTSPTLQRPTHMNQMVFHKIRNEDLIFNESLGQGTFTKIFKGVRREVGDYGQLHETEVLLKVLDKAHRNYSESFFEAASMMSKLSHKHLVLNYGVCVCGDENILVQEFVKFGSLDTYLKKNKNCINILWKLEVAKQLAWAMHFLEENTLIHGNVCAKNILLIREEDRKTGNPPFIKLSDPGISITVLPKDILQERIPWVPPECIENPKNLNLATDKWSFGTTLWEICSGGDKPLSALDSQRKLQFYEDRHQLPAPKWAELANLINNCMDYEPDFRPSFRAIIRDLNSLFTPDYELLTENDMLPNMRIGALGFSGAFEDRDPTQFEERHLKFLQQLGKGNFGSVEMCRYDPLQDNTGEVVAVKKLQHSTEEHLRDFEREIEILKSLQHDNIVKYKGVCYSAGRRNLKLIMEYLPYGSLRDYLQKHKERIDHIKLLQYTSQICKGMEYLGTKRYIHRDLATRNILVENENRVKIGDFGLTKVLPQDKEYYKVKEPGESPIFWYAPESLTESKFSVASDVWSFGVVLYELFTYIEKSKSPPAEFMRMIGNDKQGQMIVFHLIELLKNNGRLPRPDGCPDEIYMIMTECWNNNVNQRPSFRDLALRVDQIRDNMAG

[15] = system: Fer (mouse); test: as above
[16] = target: Fes (UniProt P07332); test: as above
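Throughout, for SH2 binding enrichment of the phosphorylated peptide, bacterial display: peptide library displayed on the E. coli surface as eCPX fusions, selected cells deep-sequenced, score is each peptide's frequency after selection divided by its frequency in the input.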
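Throughout, for phosphorylation enrichment, bacterial display: 11-residue human phosphosite peptides and single-mutation variants displayed on the E. coli surface, counted by deep sequencing, each peptide's frequency after selection divided by its frequency in the unselected input library; frequency after pTyr selection over input frequency; kinase dosed for 20-30% of maximal phosphorylation in three min.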

Row | Sequence | SH2 binding enrichment [1] | SH2 binding enrichment [2] | SH2 binding enrichment [3] | phosphorylation enrichment [4] | phosphorylation enrichment [5] | phosphorylation enrichment [6] | phosphorylation enrichment [7] | phosphorylation enrichment [8] | phosphorylation enrichment [9] | phosphorylation enrichment [10] | phosphorylation enrichment [11] | phosphorylation enrichment [12] | phosphorylation enrichment [13] | phosphorylation enrichment [14] | phosphorylation enrichment [15] | phosphorylation enrichment [16]
1 | PVQAAYQKLVA [HBB_Y131_V134L] | 0.764 | 0.659 | 0.709 | 0.698 | 0.499 | 0.494 | 0.518 | 0.458 | 0.735 | 0.558 | 0.577 | 0.447 | 0.582 | 1.55 | 0.768 | 0.796
2 | IFLENYNAGTY [CFI_Y421_H418L] | 0.777 | 0.937 | 0.668 | 0.897 | 0.687 | 0.443 | 0.665 | 0.656 | 0.846 | 0.543 | 0.403 | 0.481 | 0.415 | 0.786 | 0.558 | 1.04
3 | ALAHKYRGGGG [HBD_Y146_H147R] | 0.598 | 0.804 | 0.535 | 0.364 | 0.432 | 0.362 | 0.471 | 0.311 | 0.404 | 0.333 | 0.309 | 0.422 | 0.335 | 0.351 | 0.315 | 0.495
4 | ISRDVYSTDFF [NTRK2_Y702_M697I_YF] | 0.715 | 0.712 | 0.505 | 0.855 | 2.84 | 0.819 | 0.666 | 0.866 | 0.903 | 1.35 | 5.74 | 0.934 | 3.12 | 0.785 | 0.568 | 0.929
5 | VNFGAYINNFK [GLB1_Y488_D491N_YF] | 0.803 | 0.834 | 0.589 | 0.689 | 0.391 | 0.635 | 0.535 | 0.566 | 1.03 | 0.523 | 0.362 | 0.535 | 0.463 | 0.662 | 0.579 | 0.912
6 | FSLIHYARIVD [MYH7_Y582_G584R] | 26.8 | 1.12 | 4.46 | 0.819 | 0.426 | 0.63 | 0.762 | 0.702 | 1.13 | 0.506 | 0.418 | 0.576 | 0.528 | 1.01 | 0.588 | 1.29

More lines, main results first:

Row | SH2 binding enrichment [1] | SH2 binding enrichment [2] | SH2 binding enrichment [3] | Sequence | phosphorylation enrichment [4] | phosphorylation enrichment [5] | phosphorylation enrichment [6] | phosphorylation enrichment [7] | phosphorylation enrichment [8] | phosphorylation enrichment [9] | phosphorylation enrichment [10] | phosphorylation enrichment [11] | phosphorylation enrichment [12] | phosphorylation enrichment [13] | phosphorylation enrichment [14] | phosphorylation enrichment [15] | phosphorylation enrichment [16]
7 | 0.671 | 0.821 | 0.45 | IYLADCRIMEG [ALOX12B_Y318_Y318C] | 0.842 | 0.559 | 0.932 | 0.869 | 0.693 | 1.27 | 0.691 | 0.556 | 0.648 | 0.684 | 0.95 | 0.65 | 1.36
8 | 0.461 | 0.722 | 0.859 | VVTGLYEKPSL [KIR3DS1_Y221] | 0.537 | 1.05 | 7.7 | 17.3 | 4.21 | 1.36 | 6.03 | 9.59 | 0.456 | 2.3 | 0.623 | 13.2 | 0.66
